T1: human TNFR1 (human, UniProt P19438 30-455)
T1 construct: whole, on cells
T1 sequence (looked up): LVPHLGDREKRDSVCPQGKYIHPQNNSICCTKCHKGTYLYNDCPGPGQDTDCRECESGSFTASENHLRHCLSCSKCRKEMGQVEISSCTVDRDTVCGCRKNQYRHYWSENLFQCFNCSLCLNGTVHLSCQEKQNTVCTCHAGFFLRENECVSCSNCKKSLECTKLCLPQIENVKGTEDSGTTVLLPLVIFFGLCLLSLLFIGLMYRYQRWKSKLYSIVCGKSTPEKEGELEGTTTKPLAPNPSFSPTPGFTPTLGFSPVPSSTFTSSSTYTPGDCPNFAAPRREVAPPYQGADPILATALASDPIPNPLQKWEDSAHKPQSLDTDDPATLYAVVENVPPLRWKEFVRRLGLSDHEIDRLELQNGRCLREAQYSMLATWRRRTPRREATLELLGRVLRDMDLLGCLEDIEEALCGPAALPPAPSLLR

T2: human TNFR2 (human, UniProt P20333 23-461)
T2 construct: whole, on cells
T2 sequence (looked up): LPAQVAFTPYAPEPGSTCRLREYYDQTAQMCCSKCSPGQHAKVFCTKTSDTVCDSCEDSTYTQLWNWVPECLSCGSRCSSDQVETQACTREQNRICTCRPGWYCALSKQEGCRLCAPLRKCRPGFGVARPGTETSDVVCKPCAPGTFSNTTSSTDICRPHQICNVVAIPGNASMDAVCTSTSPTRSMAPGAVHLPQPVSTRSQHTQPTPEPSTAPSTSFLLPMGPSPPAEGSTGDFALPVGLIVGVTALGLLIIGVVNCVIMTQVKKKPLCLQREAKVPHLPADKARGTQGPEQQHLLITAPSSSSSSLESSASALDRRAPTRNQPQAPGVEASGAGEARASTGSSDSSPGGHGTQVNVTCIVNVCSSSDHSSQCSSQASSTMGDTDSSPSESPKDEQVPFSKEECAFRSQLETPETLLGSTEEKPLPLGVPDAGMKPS

T3: human TNFR14 (human, UniProt Q92956 39-283)
T3 construct: whole, on cells
T3 sequence (looked up): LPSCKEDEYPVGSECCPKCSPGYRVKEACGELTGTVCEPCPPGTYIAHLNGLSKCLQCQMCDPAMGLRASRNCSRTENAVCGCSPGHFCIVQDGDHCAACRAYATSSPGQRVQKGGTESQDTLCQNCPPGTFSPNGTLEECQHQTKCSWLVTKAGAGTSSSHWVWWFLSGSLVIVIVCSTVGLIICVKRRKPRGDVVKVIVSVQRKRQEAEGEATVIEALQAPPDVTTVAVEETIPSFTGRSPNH

T4: cynomolgus monkey CD40 on cells (cynomolgus monkey, UniProt P25942 21-277 (human entry))
T4 construct: also called cyno CD40 on HEK293 cells; CD40 on cynomolgus monkey B cells
T4 chain: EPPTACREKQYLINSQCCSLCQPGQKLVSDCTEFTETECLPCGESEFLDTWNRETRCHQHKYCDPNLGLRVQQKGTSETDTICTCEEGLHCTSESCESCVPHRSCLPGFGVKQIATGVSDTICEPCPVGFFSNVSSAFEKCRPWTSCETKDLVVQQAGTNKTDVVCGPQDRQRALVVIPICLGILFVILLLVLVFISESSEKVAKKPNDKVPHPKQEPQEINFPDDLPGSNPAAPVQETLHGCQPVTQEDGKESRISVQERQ

T5: mouse CD40 on cells (mouse, UniProt P27512 20-289)
T5 construct: whole, on cells; also called mouse CD40 on HEK293 cells; CD40 on mouse B cells
T5 sequence (looked up): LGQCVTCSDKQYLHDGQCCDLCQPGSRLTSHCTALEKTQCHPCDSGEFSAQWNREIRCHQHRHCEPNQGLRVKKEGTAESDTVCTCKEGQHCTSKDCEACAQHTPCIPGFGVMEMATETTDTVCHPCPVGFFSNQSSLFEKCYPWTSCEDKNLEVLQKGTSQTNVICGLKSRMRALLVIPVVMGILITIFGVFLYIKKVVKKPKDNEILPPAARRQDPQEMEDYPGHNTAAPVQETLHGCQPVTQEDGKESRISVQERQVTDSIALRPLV


How the values were obtained:
human CD40 on cells [1] = target: T6, human CD40 on cells (human, UniProt P25942 21-277); experiment: cell-based or functional assay
human TNFR1 [2] = target: T1, human TNFR1; experiment: flow cytometry, HEK293 transfectants
Procedure: (§1) The binding affinity of anti-human CD40 antibodies to human and cynomolgus monkey CD40 was measured by Octet assay (Table 3), quantifying association rate (Kon), disassociation rate (Kdis), and equilibrium binding constant (KD). Cross-reactivity of anti-CD40 antibodies to related TNF receptor superfamily (TNFRSF) members was evaluated by expressing human TNFR1, TNFR2, TNFR10, or TNFR14 on HEK293 cells by transient transfection of expression vectors encoding these genes. Binding of indicated anti-human CD40 antibody to these transfected cells was determined by flow cytometry. […] Cross-reactivity of anti-CD40 antibodies to cynomolgus monkey and mouse CD40 was evaluated by expressing cynomolgus monkey or mouse CD40 on HEK293 cells by transient transfection of expression vectors encoding these genes. Binding of indicated anti-human CD40 antibody to cells overexpressing cynomolgus monkey and mouse CD40 was determined by flow cytometry.

human TNFR2 = target: T2, human TNFR2; experiment: flow cytometry, HEK293 transfectants
Procedure: as §1

human TNFR14 [3] = target: T3, human TNFR14; experiment: flow cytometry, HEK293 transfectants
Procedure: as §1

[4] = target: T4, cynomolgus monkey CD40 on cells; experiment: flow cytometry, HEK293 transfectants vs control cells
Procedure: as §1

mouse CD40 on cells = target: T5, mouse CD40 on cells; experiment: as above
Procedure: as §1

human TNFR1 [5] = target: T1, human TNFR1; experiment: as above
Procedure: as §1

human TNFR10 = target: T7, human TNFR10 (human); experiment: as above
T7 construct: whole, on cells; Name as printed is ambiguous (TNFRSF10A-D)
Procedure: as §1

human TNFR14 [6] = target: T3, human TNFR14; experiment: as above
Procedure: as §1

human CD40 on cells [7] = target: T6, human CD40 on cells; experiment: flow cytometry, labelled CD40L on CD40-293T cells, antibody at 5 ug/ml
Procedure: Percent ligand binding inhibition was calculated as [(CD40L binding gMFI in the absence of anti-CD40)−(CD40L binding gMFI in the presence of anti-CD40)]/(CD40L binding gMFI in the absence of anti-CD40). gMFI: geometric mean fluorescent intensity. All anti-CD40 antibodies show minimal effects on the ability of CD40L to bind to the CD40 receptor (Table 7).
Target sequence in this assay (P25942 21-277 limits assumed): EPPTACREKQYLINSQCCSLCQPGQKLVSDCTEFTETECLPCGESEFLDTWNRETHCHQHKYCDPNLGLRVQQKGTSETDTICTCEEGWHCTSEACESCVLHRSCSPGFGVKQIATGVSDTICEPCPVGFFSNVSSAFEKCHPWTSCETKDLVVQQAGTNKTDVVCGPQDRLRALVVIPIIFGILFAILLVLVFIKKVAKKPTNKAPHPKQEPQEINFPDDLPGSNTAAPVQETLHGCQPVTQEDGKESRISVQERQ

human B cell proliferation, no crosslinking, EC50 (human CD40 on cells [1]) [nM]	human B cell proliferation, no crosslinking, Max Fold Change (human CD40 on cells [1]) [fold]	human B cell proliferation, with protein G crosslinking, EC50 (human CD40 on cells [1]) [nM]	human B cell proliferation, with protein G crosslinking, Max Fold Change (human CD40 on cells [1]) [fold]	binding result (human TNFR1 [2])	binding result (human TNFR2)	binding result (human TNFR14 [3])	fold over control (gMFI) [4] [fold]	fold over control (gMFI) (mouse CD40 on cells) [fold]	fold over control (gMFI) (human TNFR1 [5]) [fold]	fold over control (gMFI) (human TNFR10) [fold]	fold over control (gMFI) (human TNFR14 [6]) [fold]	Ligand Binding Inhibition (%) (human CD40 on cells [7])	Binder
> 16.7	1.35	0.235	18.2	no binding	no binding	no binding	71	0.8	0.98	0.89	0.84	-8	29H10 (antibody, V domains shown, also called 4877-1) VH: QVQLVQSGAEVTKPGASVKVSCKASGYTFAGYYMHWVRQAPGQGLEWMGWINPHSGGTNYAQKFQDRVTMTRDTSINTAYMELSRLRSDDTAVYYCARERISMVRGVGHNWFAPWGQGTLVTVSS VL: DIQMTQSPSSLSASVGDRVTITCRASQDISNNLAWFQQKPGKPPKSLMYAASSLHSGVPSTFSGSGSGTDFTFTISSLQPEDFATYYCQQYNSYPLTFGGGTKVEIRR
> 16.7	1.21	0.237	18.2	no binding	no binding	no binding	74	0.9	1	0.77	0.8	4	33H6 (antibody, IgG4, V domains shown, also called 4883-1) VH: QVQLVQSGAEVKKPGASVKVSCKASGYTFPGYYMYWLRQAPGQGLEWMGWINPDSGDTNYAQKFQGRVTMTRDTSISTAFMELSRLRSDDTAVYYCAREKPRYFDSFYYYLMDVWGQGTTVTVSS VL: DIQMTQSPSSLSASVGDRVTITCRAGQNISRHLNWYQQNPGKAPKVLIHPASSLPSGVPSRFSGSGSGTDFSLTISSLQPEDFGTYFCQQSYSTPPTFGGGTKVELKR
> 16.7	1.33	0.371	24.2	no binding	no binding	no binding	76	0.8	1	0.73	0.74	-5	35F11 (antibody, IgG4, V domains shown, also called 4868-1) VH: QVQLVESGGGVVQPGRSLRLSCAASGFTLSSYGMHWVRQAPGKGLEWVAVIWYDGSNKYYADSVKGRVTISRDNSKNTLYLQMNSLRAEDTAVYYCTRDGRNYVYFDNWGQGTLVTVSS VL: QSALTQPRSVSGSPGQSVTISCTGTSSDVGGYIFVSWYQQHPGKAPKLMIYDVSKRPSGVPDRFSGSKSVNTASLTISGLQAEDETDYYCCSYAGNYTYVFGTGTKVTVLG
> 16.7	1.24	0.529	23	no binding	no binding	no binding	87	0.9	1	0.86	0.89	-6	39C2 (antibody, IgG4, V domains shown, also called 4887-1) VH: QVQLVQSGTEVKKPGASVKVSCKASGYTFPGYYMHWVRQAPGQGLEWMGWINPDSGGTKYTQKFQGRVTLTRDASVSTAYIDLNRLRSDDTAVYYCARERCRTTNCYLDYWGQGSLVTVSS VL: QSALTQPASVSGSPGQSITISCTGTSSDVGNYNLVSWYQQHPGKAPKLMIYEVNRRPSGVSNRFSGSKSGNTASLTISGLQAEDEAEYYCCSYAGRDTFVVFGGGTKLTVLG
> 16.7	1.19	0.504	27.1	no binding	no binding	no binding	92	0.9	0.99	0.88	0.87	2	37A6 (antibody, IgG4, V domains shown, also called 4865-1) VH: QVQLVESGGGLVKPGGSLRLSCAASEFTFSDYYMSWIRQAPGKGLEWVSYISRSGDTIYYADSVKGRFTISRDNAKNSLYLQMNGLRAEDTAVYYCARDLAAGATGGLDCWGQGTLVTVSS VL: SYELTQPPSVSVSPGQTASITCSGERLGNKYICWYQQKPGQSPVLVIYQDFKRPSGIPERFSGSNSGITATLTISGTQAMDEADYYCQAWDSRTVVFGGGTKLTVLG
> 16.7	1.83	0.558	16.9	no binding	no binding	no binding	82	0.9	0.99	0.86	0.88	10	36F3 (antibody, IgG4, V domains shown, also called 4891-1) VH: QVQLQQSGPGLVKPSQTLSLTCAISGDSVSSSRTAWNWIRQSPSRGLEWLGRTYYRSKWYHDYSVSVKSRITIDPDTSKNQFSLQLNSVTPEDTAVYYCARGAAPFDYWGQGTLVTVSS VL: EIVLTQSPGTLSLSPGERATLSCRASQSVSSNYLAWYQQKPGQAPRALIYAASNRAAGISDRFSGSGSGTDFTLTISRLEPEDFAVYFCQQYGSSPLTFGGGTKVEIKR
